Source: patent US20200271647A1 (SEOUL NATIONAL UNIVERSITY HOSPITAL, published 2020)

Tests used:
[1] = target: T1, human c-Met antigen (Sino Biological) (human, UniProt P08581 25-932); assay: derived from SPR KD (BIACORE T200); values fit 3.52/KD, i.e. relative to the best KD (VH5/Vk0); reference not given
T1 construct: Bought antigen used as the analyte in SPR; also called hepatocyte growth factor receptor; HGFR
Procedure: (§1) After combining the above variants, each combination was subjected to measurement of a binding ability (that is, affinity). Then, using BIACORE T200 (serial no. 1909913) device, BIACORE T200 Control Software V2.0.1 and BIACORE T200 Evaluation Software V3.0 (GE Healthcare, Uppsala, Sweden) analysis program, affinity of each candidate antibody to the antigen, c-Met, was determined along with a dissociation constant (KD value). After fixing the anti-cMet antibody to be analyzed on a protein ACM5 chip (GE Healthcare, Little Chalfont, UK), sensorgrams were acquired by flowing human c-Met antigen (Sino Biological, Beijing, China) at different concentrations in a range of 0.25 to 2 nM over the antibody. Based on the acquired sensorgrams, rate constants kₒₙ and koff were measured and KD value was calculated from a ratio of koff/kₒₙ. The calculated results are shown in Table 10 below, wherein 10 analyzed antibodies were listed in the order of higher affinity to lower affinity.
(§2) In order to determine a final candidate group from the above selected candidate antibodies, standards for determination were subdivided into expression level, affinity, thermal stability and biopotency, and used for comparison. Generally, considering production time and costs, the expression level among the above standards is regarded as the most important indicator. Accordingly, in first consideration of smooth antibody production, the present inventors have excluded the candidate antibodies with an expression level of less than […]. Thereafter, compared to the reference antibody (VH0/Vk0), improvement of each candidate antibody was converted into a numerical value from each of selection indexes. Then, an assay value of the candidate antibody measured from the selection index was divided by an average assay value to obtain a ratio (index 1). This index 1 was again divided by a ratio of VH0/Vk0 to obtain index 2, which in turn, is normalized (Tables 12 to 15). Further, these numerical values analyzed from four selection indexes (that is, the above indicators) were subjected to multiplying operation, and the candidate antibodies were overall compared with respect to the four selection indexes. Therefore, the finally resultant values (index 3) were listed in the order (highest first).

[2] = target: T1, human c-Met antigen (Sino Biological); assay: SPR (BIACORE T200), antibody captured on protein A CM5 chip, human c-Met 0.25 to 2 nM as analyte
Procedure: as §1

[3] = target: c-Met protein receptor on human umbilical vein endothelial cells (HUVEC) (human, UniProt P08581 25-1390); assay: cell-based or functional assay
Chain of c-Met protein receptor on human umbilical vein endothelial cells (HUVEC) (P08581 25-1390): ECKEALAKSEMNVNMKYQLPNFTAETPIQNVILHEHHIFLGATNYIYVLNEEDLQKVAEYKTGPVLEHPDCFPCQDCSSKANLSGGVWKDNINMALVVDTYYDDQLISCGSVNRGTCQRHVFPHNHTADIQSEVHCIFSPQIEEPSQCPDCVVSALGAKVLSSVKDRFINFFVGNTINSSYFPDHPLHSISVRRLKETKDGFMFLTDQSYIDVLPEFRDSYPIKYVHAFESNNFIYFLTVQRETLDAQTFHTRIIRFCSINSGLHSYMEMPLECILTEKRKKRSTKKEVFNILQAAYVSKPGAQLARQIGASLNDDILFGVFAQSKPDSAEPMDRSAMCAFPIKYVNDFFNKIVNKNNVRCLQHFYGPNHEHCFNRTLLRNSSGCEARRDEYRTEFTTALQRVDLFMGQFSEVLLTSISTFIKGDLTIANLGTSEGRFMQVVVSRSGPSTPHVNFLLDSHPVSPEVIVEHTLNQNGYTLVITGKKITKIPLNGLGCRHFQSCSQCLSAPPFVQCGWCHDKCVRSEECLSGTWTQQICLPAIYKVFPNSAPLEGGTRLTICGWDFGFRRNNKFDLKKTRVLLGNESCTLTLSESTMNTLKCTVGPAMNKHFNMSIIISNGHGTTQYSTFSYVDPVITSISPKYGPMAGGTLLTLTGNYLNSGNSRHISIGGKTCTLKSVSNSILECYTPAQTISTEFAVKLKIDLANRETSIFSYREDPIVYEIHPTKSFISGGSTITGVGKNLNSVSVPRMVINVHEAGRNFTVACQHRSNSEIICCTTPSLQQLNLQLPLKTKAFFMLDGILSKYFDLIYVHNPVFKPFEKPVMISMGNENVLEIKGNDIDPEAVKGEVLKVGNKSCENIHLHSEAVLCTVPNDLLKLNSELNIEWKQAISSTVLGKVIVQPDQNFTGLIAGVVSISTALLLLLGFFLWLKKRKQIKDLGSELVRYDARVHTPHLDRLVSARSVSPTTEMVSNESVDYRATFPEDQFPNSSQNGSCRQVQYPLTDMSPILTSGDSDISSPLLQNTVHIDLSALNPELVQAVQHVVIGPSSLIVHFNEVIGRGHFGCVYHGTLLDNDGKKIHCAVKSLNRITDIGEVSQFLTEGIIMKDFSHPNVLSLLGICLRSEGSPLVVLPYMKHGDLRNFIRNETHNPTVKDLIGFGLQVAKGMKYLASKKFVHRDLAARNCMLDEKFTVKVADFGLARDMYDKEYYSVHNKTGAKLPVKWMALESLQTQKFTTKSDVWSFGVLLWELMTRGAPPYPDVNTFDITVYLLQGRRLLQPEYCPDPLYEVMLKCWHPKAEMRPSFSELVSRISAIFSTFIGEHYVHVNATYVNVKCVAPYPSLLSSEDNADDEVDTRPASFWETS

[4] = target: T1, human c-Met antigen (Sino Biological); assay: derived from SPR KD; index 1 divided by the ratio of VH0/Vk0
Procedure: as §1, §2

[5] = target: T1, human c-Met antigen (Sino Biological); assay: SPR (BIACORE T200), antibody captured on protein A CM5 chip, human c-Met as analyte
Procedure: as §1

T1 sequence (P08581 25-932 limits assumed): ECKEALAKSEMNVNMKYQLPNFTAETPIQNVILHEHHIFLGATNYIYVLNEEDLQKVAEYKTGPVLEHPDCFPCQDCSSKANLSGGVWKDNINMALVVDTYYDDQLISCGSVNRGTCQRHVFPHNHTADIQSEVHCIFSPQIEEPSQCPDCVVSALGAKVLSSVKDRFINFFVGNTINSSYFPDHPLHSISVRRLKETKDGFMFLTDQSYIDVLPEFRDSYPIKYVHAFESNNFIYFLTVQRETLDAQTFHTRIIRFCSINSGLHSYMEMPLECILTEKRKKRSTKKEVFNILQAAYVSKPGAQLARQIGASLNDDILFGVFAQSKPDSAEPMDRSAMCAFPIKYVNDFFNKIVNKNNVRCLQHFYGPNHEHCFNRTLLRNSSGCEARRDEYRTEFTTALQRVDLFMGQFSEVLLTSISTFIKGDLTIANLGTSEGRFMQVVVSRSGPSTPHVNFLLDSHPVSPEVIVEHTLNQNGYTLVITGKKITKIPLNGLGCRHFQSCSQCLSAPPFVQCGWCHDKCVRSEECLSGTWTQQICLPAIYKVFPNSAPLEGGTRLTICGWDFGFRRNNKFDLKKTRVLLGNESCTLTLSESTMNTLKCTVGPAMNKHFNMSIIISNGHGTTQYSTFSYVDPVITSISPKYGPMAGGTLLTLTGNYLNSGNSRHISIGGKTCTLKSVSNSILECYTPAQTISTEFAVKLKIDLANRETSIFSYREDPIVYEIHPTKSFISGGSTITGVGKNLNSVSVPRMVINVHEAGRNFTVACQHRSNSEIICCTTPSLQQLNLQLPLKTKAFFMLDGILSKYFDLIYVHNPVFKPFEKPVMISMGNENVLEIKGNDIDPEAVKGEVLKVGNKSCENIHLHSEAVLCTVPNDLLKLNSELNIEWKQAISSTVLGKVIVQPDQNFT

Binder | Index 1 (affinity index from KD) [1] | Kd [2] [nM] | Relative Migration (%) (HUVEC migration assay) [3] | Index 2 (affinity index normalised to VH0/Vk0) [4] | Relative KD to VH0/Vk0 [5]
VH5/Vk0 (antibody, V domains shown, CDR-grafted variant of the IgG1-based anti-cMet antibody 1E4; also called anti-cMet candidate antibody VH5/Vk0) VH: QVQLVQSGAEVKKPGSSVKVSCQGSGYSFPTHWITWVRQAPGQGLEWMGTIDPTDSYNFYGPSFQGRVTITADSSTSTAYMELSSLRSEDTAVYYCARDGNYYDSRGYYYDTFDMWGQGTLVTVSS VL: DIQMTQSPSFLSASVGDRVTITCRASQGISTYLAWYQQKPGTAPKLLIYSASTLESGVPSRFSGSGSGTDFTLTISSLQPEDSATYYCQQADSFPLTFGGGTKVEIK | 1 | 0.352 | 128 | 1.48 | 0.68
VH2/Vk0 (antibody, V domains shown) VH: EVQLVQSGAEVKKPGESLKISCKGSGYSFPTHWITWVRQMPGKGLEWMGTIDPTDSYNFYGPSFQGQVTISADKSISTAYLQWSSLKASDTAMYYCARDGNYYDSRGYYYDTFDMWGQGTLVTVSS VL: DIQMTQSPSFLSASVGDRVTITCRASQGISTYLAWYQQKPGTAPKLLIYSASTLESGVPSRFSGSGSGTDFTLTISSLQPEDSATYYCQQADSFPLTFGGGTKVEIK |  | 0.534 |  |  | 1.03
VH2/Vk2 (antibody, V domains shown) VH: EVQLVQSGAEVKKPGESLKISCKGSGYSFPTHWITWVRQMPGKGLEWMGTIDPTDSYNFYGPSFQGQVTISADKSISTAYLQWSSLKASDTAMYYCARDGNYYDSRGYYYDTFDMWGQGTLVTVSS VL: DIQMTQSPSSLSASVGDRVTITCRASQGISTYLAWYQQKPGKAPKLLIYSASTLESGVPSRFSGSGSGTDFTLTISSLQPEDFATYYCQQADSFPLTFGGGTKVEIK |  | 0.502 |  |  | 0.97
VH0/Vk2 (antibody, V domains shown, also called anti-cMet candidate antibody VH0/Vk2) VH: QVQLVQSGAEVKKPGESLRISCQGSGYSFPTHWITWVRQMPGKGLEWMGTIDPTDSYNFYGPSFQGHVTISADSSSSTAYLQWSSLKASDTAMYYCARDGNYYDSRGYYYDTFDMWGQGTLVTVSS VL: DIQMTQSPSSLSASVGDRVTITCRASQGISTYLAWYQQKPGKAPKLLIYSASTLESGVPSRFSGSGSGTDFTLTISSLQPEDFATYYCQQADSFPLTFGGGTKVEIK | 0.688 | 0.512 | 163 | 1.02 | 0.98
VH0/Vk0 (antibody, V domains shown, Derived from the IgG1-based 1E4 by a K to R change in the CH1 domain (G1m(3) allotype) and an S to T change in the light chain constant region (Km3 allotype); also called VMDO2 VH0/Vk0) VH: QVQLVQSGAEVKKPGESLRISCQGSGYSFPTHWITWVRQMPGKGLEWMGTIDPTDSYNFYGPSFQGHVTISADSSSSTAYLQWSSLKASDTAMYYCARDGNYYDSRGYYYDTFDMWGQGTLVTVSS VL: DIQMTQSPSFLSASVGDRVTITCRASQGISTYLAWYQQKPGTAPKLLIYSASTLESGVPSRFSGSGSGTDFTLTISSLQPEDSATYYCQQADSFPLTFGGGTKVEIK | 0.677 | 0.52 | 150 | 1 | 1
VH4/Vk2 (antibody, V domains shown, CDR-grafted variant of the IgG1-based anti-cMet antibody 1E4; also called anti-cMet candidate antibody VH4/Vk2) VH: QVQLVQSGAEVKKPGSSVKVSCQGSGYSFPTHWITWVRQAPGQGLEWMGTIDPTDSYNFYGPSFQGRVTITADSSTSTAYMELSSLRSEDTAMYYCARDGNYYDSRGYYYDTFDMWGQGTLVTVSS VL: DIQMTQSPSSLSASVGDRVTITCRASQGISTYLAWYQQKPGKAPKLLIYSASTLESGVPSRFSGSGSGTDFTLTISSLQPEDFATYYCQQADSFPLTFGGGTKVEIK | 0.832 | 0.423 | 177 | 1.23 | 0.81
VH6/Vk2 (antibody, V domains shown, CDR-grafted variant of the IgG1-based anti-cMet antibody 1E4; also called anti-cMet candidate antibody VH6/Vk2) VH: QVQLVQSGAEVKKPGSSVKVSCKASGYSFPTHWITWVRQAPGQGLEWMGTIDPTDSYNFYGPSFQGRVTITADKSTSTAYMELSSLRSEDTAVYYCARDGNYYDSRGYYYDTFDMWGQGTLVTVSS VL: DIQMTQSPSSLSASVGDRVTITCRASQGISTYLAWYQQKPGKAPKLLIYSASTLESGVPSRFSGSGSGTDFTLTISSLQPEDFATYYCQQADSFPLTFGGGTKVEIK | 0.8 | 0.44 | 154 | 1.18 | 0.85

The remaining binders from weak to strong by Kd [2], led by results:

Index 1 (affinity index from KD) [1] | Kd [2] [nM] | Relative Migration (%) (HUVEC migration assay) [3] | Index 2 (affinity index normalised to VH0/Vk0) [4] | Relative KD to VH0/Vk0 [5] | Binder
0.838 | 0.42 | 176 | 1.24 | 0.81 | VH5/Vk2 (antibody, V domains shown, CDR-grafted variant of the IgG1-based anti-cMet antibody 1E4; also called anti-cMet candidate antibody VH5/Vk2) VH: QVQLVQSGAEVKKPGSSVKVSCQGSGYSFPTHWITWVRQAPGQGLEWMGTIDPTDSYNFYGPSFQGRVTITADSSTSTAYMELSSLRSEDTAVYYCARDGNYYDSRGYYYDTFDMWGQGTLVTVSS VL: DIQMTQSPSSLSASVGDRVTITCRASQGISTYLAWYQQKPGKAPKLLIYSASTLESGVPSRFSGSGSGTDFTLTISSLQPEDFATYYCQQADSFPLTFGGGTKVEIK
0.85 | 0.414 | 152 | 1.26 | 0.8 | VH6/Vk0 (antibody, V domains shown, CDR-grafted variant of the IgG1-based anti-cMet antibody 1E4; also called anti-cMet candidate antibody VH6/Vk0) VH: QVQLVQSGAEVKKPGSSVKVSCKASGYSFPTHWITWVRQAPGQGLEWMGTIDPTDSYNFYGPSFQGRVTITADKSTSTAYMELSSLRSEDTAVYYCARDGNYYDSRGYYYDTFDMWGQGTLVTVSS VL: DIQMTQSPSFLSASVGDRVTITCRASQGISTYLAWYQQKPGTAPKLLIYSASTLESGVPSRFSGSGSGTDFTLTISSLQPEDSATYYCQQADSFPLTFGGGTKVEIK
0.891 | 0.395 | 122 | 1.32 | 0.76 | VH4/Vk0 (antibody, V domains shown, CDR-grafted variant of the IgG1-based anti-cMet antibody 1E4; also called anti-cMet candidate antibody VH4/Vk0) VH: QVQLVQSGAEVKKPGSSVKVSCQGSGYSFPTHWITWVRQAPGQGLEWMGTIDPTDSYNFYGPSFQGRVTITADSSTSTAYMELSSLRSEDTAMYYCARDGNYYDSRGYYYDTFDMWGQGTLVTVSS VL: DIQMTQSPSFLSASVGDRVTITCRASQGISTYLAWYQQKPGTAPKLLIYSASTLESGVPSRFSGSGSGTDFTLTISSLQPEDSATYYCQQADSFPLTFGGGTKVEIK
